Primed or numbered codes have the meaning given here. Ends that are not written are not given here. FITC′ = not defined here
Columns and labels:
Experiment in all cases: fluorescence polarization
[1] = biological target: T1, labeled peptide with N-terminal leucine (XAKLDEESILKQK-FITC, SEQ ID NO: 833, X = L)
T1 peptide: LAKLDEESILKQK-{FITC′}

[2] = biological target: labeled peptide with N-terminal valine (X…-FITC, SEQ ID NO: 833, X = V) (C-terminal FITC label)
[3] = biological target: labeled peptide with N-terminal isoleucine (X…-FITC, SEQ ID NO: 833, X = I) (C-terminal FITC label)

B1: PS961 (designed binder)
chain: MPTAASATESAIEDTPAPARPEVDGRTKPKRQPRYHVVLWDDDDHTYQYVVVMLRSLFGHPPSRGYRMAKEMDTQGRVIVLTTTREHAELKRDQIHAFGRDRLLARSKGSMKASIEAEE
Kd [1]: 55 nM | Kd [2]: 144 nM | Kd [3]: 68 nM
